Data from patent publication US7268110B2, “Agents for preventing and treating thrombocytopenia” (Chugai Seiyaku Kabushiki Kaisha, priority 1996, dated 2007).

Tests used:
platelet = experiment: Effectiveness of PTH derivative, daily administration to mouse; type: in vivo; conditions: C57B1/6N mice, 200 μg/kg subcutaneously once a day for six days, blood 24 h after final administration
Description: Effectiveness of PTH Derivative
Ten-week old male C57B1/6N mice as purchased from Japan Charles River Co., Ltd. were used in the experiment.
Drug solutions to be administered were prepared basically from human PTH(1-84) and human PTH(1-34) by the same procedure as in Example 1 to give a drug concentration of 20 μg/mL.
Eighteen mice were divided into three groups, which were administered subcutaneously with the two drug solutions and a control (citrate buffer) for six days on a once-a-day basis in a volume of 10 mL/kg. […] The administration was initiated at 10 a.m.
After 24 h of the final administration, a blood sample was withdrawn from each mouse through the orbital vein. Peripheral corpuscle counts were obtained with an automatic corpuscle counter F-800 (TOA MEDICAL ELECTRONICS CO., LTD).

[1] = system: BFU-E (precursor cells of erythrocytes); conditions: report by Meytes et al, J. Clin. Invest. 1981; cited from earlier work
platelet counts [2] = experiment: Test for single-dose administration to mouse (platelet increasing action); type: in vivo; conditions: C57B1/6N mice, 10 μg/kg single dose through the tail vein
Description: Test for Single-Dose Administration to Mouse
Nine-week old male C57B1/6N mice as purchased from Japan Charles River Co. Ltd. were used in the experiment.
Human PTH(1-84) was dissolved in a citrate buffer (pH 5; containing 0.05% of Tween 80) at final concentrations of 1, 0.2 and 0.04 ˜g/mL so as to prepare the drug solutions to be administered.
Each of the thus prepared drug solutions and a control (citrate buffer) was administered to 15 mice through the tail vein in a volume of 10 mL/kg. […] The administration was initiated at 10 a.m.
After 3, 6 and 9 hours of the administration, five mice were picked up at random from each group of animals and blood samples were withdrawn through the orbital vein. At 10 a.m. on the same day, separate blood samples were taken from untreated mice (four in number) to obtain the preadministration value. Peripheral corpuscle counts were obtained with an automatic corpuscle counter F-800 (TOA MEDICAL ELECTRONICS CO., LTD.).

platelet counts [3] = experiment: Test for daily administration to rabbit (platelet increasing action); type: in vivo; conditions: rabbits, 200 μg/kg subcutaneously daily
Description: Test for Daily Administration to Rabbit
Six 12-15 week old male Japanese albino rabbits JW/CSK were used in the experiment. The animals were individually kept in aluminum rabbit bracket cages Rb-1 (350^w×500^d×350^h mm) in a vavarium in a specific pathogen-free environment under the following conditions: temperature, 24±2° C.; humidity, 50±10%; illumination, light turned on at 5:00 and turned off at 19:00; ventilation, 15 changes/hr. Each animal was supplied with 120 g of a radiation-sterilized feed for rabbits RM (purchased from Funahashi Farm) per day. The animals were also allowed to drink to tap water ad libitum from an automatic water feeder.
Human PTH(1-84) was administered in a volume of 2 mL/vial at a concentration of 200 μg/mL. A solvent was also supplied in a volume of 2 mL/vial. Both the drug and the control were stored at −135° C. until use.
PTH (200 μg/kg) was administered to the rabbits subcutaneously at the back of their neck for 13 consecutive days. The solvent was similarly administered in the same volume as the dose of a rh-PTH solution calculated from their body weight.
Blood samples (0.5 mL) were withdrawn from the rabbits through the lateral auricular vein before the administration and on days 2, 6, 9 and 13 during the administration period. […]

platelet count = experiment: Test for daily administration to mouse (platelet increasing action); type: in vivo; conditions: C57B1/6N mice; for platelet count: day 5
Description: Test for Daily Administration to Mouse
Nine-week old male C57B1/6N mice as purchased from Japan Charles River Co., Ltd. were used in the experiment.
Drug solutions to be administered were prepared basically by the same procedure as in Example 1 to give drug concentrations of 5, 20 and 80 μg/mL.
The mice under test were divided into four groups, which were administered subcutaneously with the three drug solutions and a control (citrate buffer) once a day in a volume of 10 mL/kg. […] The administration was initiated at 10 a.m.
On days 5, 7 and 9 after the start of administration, five or six mice were picked up at random from each group of animals and blood samples were withdrawn through the orbital vein. The sampling of blood was timed to occur 24 h of the final administration. Separate blood samples were taken from untreated mice (five in number) to obtain the value for normal mouse. Peripheral corpuscle counts were obtained with an automatic corpuscle counter F-800 (TOA MEDICAL ELECTRONICS CO., LTD.).

[4] = system: CFU-GM (precursor cells of granulocytes and macrophages); conditions: report by Meytes et al, J. Clin. Invest. 1981; cited from earlier work

Row | Molecule | platelet increasing action (platelet) | in vitro colony formation by BFU-E [1] | platelet counts over the control (platelet counts [2]; 6 h after the administration) | platelet counts over the control (platelet counts [2]; 9 h after the administration) | platelet count relative to the initial level (platelet counts [3]; day 13) | platelet count relative to the initial value (platelet counts [3]; increase from day 2 until day 6) | platelet count (platelet count; 200 μg/kg subcutaneously once a day) | platelet count (platelet count; 800 μg/kg subcutaneously once a day) | platelet count vs the control (platelet count; all treated groups (50, 200 and 800 μg/kg subcutaneously once a day), day 7) | in vitro colony formation by CFU-GM [4]
1 | human PTH(1-34) (SVSEIQLMHNLGKHLNSMERVEWLRKKLQDVHNF; Parathyroid hormone; UniProt P01270 32-65, looked up, fragment) [PTH(134), partial peptide of PTH composed of 34 amino acids as counted from the N terminus; purchased from Peptide Institute, Inc, reference compound] | comparable platelet increasing action to PTH(1-84) |  |  |  |  |  |  |  |  | 
2 | human PTH(1-84) (protein, UniProt P01270 32-115, looked up, Parathyroid hormone) Parathyroid hormone: SVSEIQLMHNLGKHLNSMERVEWLRKKLQDVHNFVALGAPLAPRDAGSQRPRKKEDNVLVESHEKSLGEADKADVNVLTKAKSQ | platelet increasing action | interfered | significant increase | significant increase | substantially returned to the initial level | two to four | tendency to increase | tendency to increase | significantly higher | interfered
